Assay results published in the supplement of paper PMC9170038.

system: MS2 coat protein; assay: apparent KD of MS2 coat protein; higher = weaker reporter binding; conditions: Eterna round: R107; input ligand: theophylline 20 uM
Protocol: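 RNA-MaP round R107: designed RNA switches with theophylline, tryptophan, arginine or FMN aptamers are transcribed on-chip within common flanks. They are titrated with SNAP-549-labelled MS2 coat protein in RNA-MaP buffer (100 mM Tris pH 7.5, 80 mM KCl, 4 mM MgCl2), without ligand or with the indicated ligand. Median apparent KD per design.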

“UCGACGAUGACCAAAGGUCAGGAGUACGUACGAGGACCGGUACGGCCGCCACUCGAGGAGUGGGACAUGAGGAUCACCCAUGUGG [#20 Exclusion Tryptophan A]” and “UACAUAUGCCGAAGGAGCGCGAGAUGCAAAGCAUCAUUCCUCACAUGAGGAUCACCCAUGUCGCAGGUAGGUCGCGGCAUAUGUU [ArgBX]” are within 1.5-fold of each other in “apparent KD of MS2 coat protein” value: 51.4 nM for the first, 45.1 nM for the second.

Going from “AACAGGGCUCGCACGAAGCCCUAAGGUGAUACCAGCACAUGUAAGUGCCCUUGGCAGCACGGUACAUGAGGAUCACCCAUGUAGA [Isleenen]” to “GACGAGUAGACGGCCGCCACUAUGCUGCGCAGCCCUAGAAACGCACAUGAGGAUCACCCAUGUCUUAGGACCGGGUCGAACUUAA [theeternabot_sameState_MS2_Trp_B_48]”, the “apparent KD of MS2 coat protein” value falls from 182 nM to 107 nM (1.7-fold).

First: UGAUGGAACGGAAGGAGCGUGUAAGAACAAGAACAUGAGGAUCACCCAUGUAUUAAUUUAACACAGGUAGGUCGCCGAGUUAUUG [11.F]
Second: ACAUGAGGAUCACCCAUGUAAUUUACAGAAGGAGCGUGAUGGAUCACAGGUAGGUCGCUGUACUGCGAAAGCACUCUCAUGAAUA [JR_Nu_SSArginiA_Sub025]
The “apparent KD of MS2 coat protein” value of the first is 1.7-fold higher: 42.1 nM for the first, 25.3 nM for the second.

“GCUGUACCAUGAAGGAGCGUCAUGGAUUGCGAAUACACAUGAGGAUCACCCAUGUUUUUAUGACAGGUAGGUCGCAUGGUACAGC [#01 Same State - Arginine B]” and “ACAUGAGGAUCACCCAUGUAUUACCGGGAAGGAGCGCGUAAGGACGCAGGUAGGUCGCUCGGCGUCUGGCCGCAAGGCUGGACGA [#1 Same State - Arginine A Attempt #18 (HarryS)]” are within 1.5-fold of each other in “apparent KD of MS2 coat protein” value: 24.5 nM for the first, 21.3 nM for the second.

Compared with “AGCGAUAUGCAUGAUACCAGCUACAUGAGGAUCACCCAUGUGCGUCAGUAAUGACUGUGUAGCCCUUGGCAGCAUAGAGCAUGUA [Exclusion - Theophylline B (Freestyle 12)]”, “UCGUUUUAGUCGGCCGCCACUGGUCUCAUGUUCAACAUGAGGAUCACCCAUGUAUCUUAUUUUAACAGGACCGGGACGUAAUAGA [#16 Exclusion Tryptophan B]” is 1.9-fold higher in “apparent KD of MS2 coat protein” value: 47.2 nM for the first, 88.2 nM for the second.

Going from “UGGUACAUGAGGAUCACCCAUGUUCCAGAUACCAGUGUCCCGCUGCACCCUUGGCAGCUGGUGGCACAUGAGGAUCACCCAUGUG [Exclusion Theophylline A GF12]” to “CAUUGUUAGACGGCCGCCACUUUUGGUUCGGAACGAUCGAUUGGACAUGAGGAUCACCCAUGUGGAAGGACCGGGUCUAAUCAAA [theeternabot_sameState_MS2_Trp_B_20]”, the “apparent KD of MS2 coat protein” value rises from 16.3 nM to 328 nM (20-fold).

Going from “AAGUGGCACGGAAGGAGCGAGUUUGCCUAUUACAUGAGGAUCACCCAUGUGGGUAAUGGGACUCAGGUAGGUCGCCGUUGUCACU [Same State Arginine B GF 26]” to “GUUGCACAUGAGGAUCACCCAUGUUUGGAUACCAGUCUCUGUAAUGACCCUUGGCAGCCACCAUAGACGCUUGAGUAGAGCCUGA [theeternabot_sameState_MS2_Theo_A_21]”, the “apparent KD of MS2 coat protein” value falls from 48.5 nM to 19.4 nM (2.5-fold).

Compared with “AGAGAUGAACAUGAGGAUCACCCAUGUAAACGAGGACCGGUACGGCCGCCACUCGUGGGUGUAAUAGAAUAAUAAGAGAAUAAUA [Turkey 1]”, “AGUAUACAUUCUGAUACCAGAGACAUGAGGAUCACCCAUGUCCGAUCGUCCUGCCUCAGACUCCCUUGGCAGCAGGAUAUGUGCU [Exclusion Theophylline B GF5]” is 4.2-fold lower in “apparent KD of MS2 coat protein” value: 92 nM for the first, 21.8 nM for the second.

Compared with “UAUCGCGCGGCGGCCGCCACUAAUGGCAGAUCUGUCGACUAACAUGAGGAUCACCCAUGUCUAACUAGGACCGGGCCCAAGUUGU [theeternabot_sameState_MS2_Trp_B_7]”, “AAAAUAAAUAAAACGCGUAACAUGAAGGAUACCAGCCAGAAAACUGGCCCUUGGCAGCCUCUACAUGAGGAUCACCCAUGUCGCG [Mat - Same State Theophlline A - Mod of Eli - D15]” is 2.1-fold higher in “apparent KD of MS2 coat protein” value: 66.2 nM for the first, 141 nM for the second.

With “GGGCUUGUGGUGCGGCGUGUUCCGCUCCGUCGAGGACCGGUACGGCCGCCACUCGACAUGAGGAUCACCCAUGUGCGAGCGCGCG [#1 Exclusion - Tryptophan A Attempt #7 (HarryS)]” the “apparent KD of MS2 coat protein” value was 16.1 nM.

same assay, conditions: Eterna round: R107; input ligand: theophylline 2 mM

Going from “AGCCAUGGAAACAUGGCGGCGGCUUGAGCGCGAGGACCGGUACGGCCGCCACUCGGGCAACAUGAGGAUCACCCAUGUUCCUCAU [ETA NP+V+V2 #19]” to “AGCGUUCGGUUUAUGCCGGACAAUGGGUGACGAGGACCGGUACGGCCGCCACUCGGGCGCCCGGUUACAUGAGGAUCACCCAUGU [Oresrile]”, the “apparent KD of MS2 coat protein” value rises from 75.7 nM to 200 nM (2.6-fold).

“GGAUGCCACUAUGGAUAGCACGAUGCCGAUACCAGCUAGGAAACUAGCCCUUGGCAGCGGAACAUGAGGAUCACCCAUGUAUCCU [EThA NP+V+V2 #8]” and “GGUAUGUAUUCGGAAACGAAUGCAUACCAACGAGGACCGGUACGGCCGCCACUCGGCGGCGAUCAACAUGAGGAUCACCCAUGUA [Ex Tryptophan A 3]” are within 1.5-fold of each other in “apparent KD of MS2 coat protein” value: 42.7 nM for the first, 42.4 nM for the second.

First: AGAUUCGACACGGCCGCCACUCGUGACAGAUUUCGCAGUGGUCAACAUGAGGAUCACCCAUGUCUGAGGACCGGGUGUUGAGUCU [XTryp B #9]
Second: AACAUACAAUUUUAGGUGGAUAUAAGGCGGCGAGGACCGGUACGGCCGCCACUCGCGUACAUGAGGAUCACCCAUGUCUGAAGCU [Same State - Tryptophan A (Freestyle 6)]
The “apparent KD of MS2 coat protein” value of the first is 1.5-fold higher: 41.1 nM for the first, 27.3 nM for the second.

“AGUGAUGACCGAAGGAGCGCGGGAAACAUGAGGAUCACCCAUGUACUCCUCAGUGUUAUAACGCAGGUAGGUCGCGGUUAUGGCU [X-ArgiB-ms2@26]” and “GCAUCCUAGUCGGCCGCCACUGCGGAUCCGGUUCUAGAUCCUUAACAUGAGGAUCACCCAUGUAGCAGGACCGGGACUAGGAUGC [(Trp1)-(TM)''-(TM)'-(Ms2)-(Trp2)_Design2]” are within 1.5-fold of each other in “apparent KD of MS2 coat protein” value: 328 nM for the first, 324 nM for the second.

Compared with “AGAUUCGACACGGCCGCCACUUGUGGUGGAGGGUCUUUAGUCACACAUGAGGAUCACCCAUGUACAAGGACCGGGUGUUGAGUCU [XTryp B #23]”, “UACUUGCUGACGGCCGCCACUAGAACAUGAGGAUCACCCAUGUAGGUCCUAGAUUCCUCAUGAACUAGGACCGGGUCAGCAAGAU [(Trp1)-(Ms2)-(T)'-(M)'-(Trp2)_Design15]” is 8.7-fold higher in “apparent KD of MS2 coat protein” value: 25.4 nM for the first, 221 nM for the second.

First: GCUAGGUCUACGGCCGCCACUAGACAUGGGUAAGACAUGAGGAUCACCCAUGUACUACGAGUGCAUAGGACCGGGUAGACCUAGC [SSTB NP+V+V2 #19 +-Same Structure]
Second: ACUCGACCAUCAGCCAUUUGUGAAUCACGGCGAGGACCGGUACGGCCGCCACUCGACAUGAGGAUCACCCAUGUAAGACCGGUGU [vmullin3]
The “apparent KD of MS2 coat protein” value of the first is 13-fold higher: 516 nM for the first, 39.6 nM for the second.

“UACCGAUACGGAAGGAGCGUAGAAGUAGUACAUGAGGAUCACCCAUGUAUGGGUAAUUUCGUACAGGUAGGUCGCCGUAUCGGUA [SSAB NP+V+V2 #23]” and “UCGACGAUGACCAAAGGUCAGGAGUACGUACGAGGACCGGUACGGCCGCCACUCGAGGAGUGGGACAUGAGGAUCACCCAUGUGG [#20 Exclusion Tryptophan A]” are within 1.5-fold of each other in “apparent KD of MS2 coat protein” value: 40 nM for the first, 43.7 nM for the second.

Going from “UACAUAUGCCGAAGGAGCGCGAGAUGCAAAGCAUCAUUCCUCACAUGAGGAUCACCCAUGUCGCAGGUAGGUCGCGGCAUAUGUU [ArgBX]” to “GACGAGUAGACGGCCGCCACUAUGCUGCGCAGCCCUAGAAACGCACAUGAGGAUCACCCAUGUCUUAGGACCGGGUCGAACUUAA [theeternabot_sameState_MS2_Trp_B_48]”, the “apparent KD of MS2 coat protein” value rises from 40.3 nM to 96.2 nM (2.4-fold).

For “UGAUGGAACGGAAGGAGCGUGUAAGAACAAGAACAUGAGGAUCACCCAUGUAUUAAUUUAACACAGGUAGGUCGCCGAGUUAUUG [11.F]”, the “apparent KD of MS2 coat protein” value was 28.6 nM.
